Measurements as given in patent US12668636B2, “Pharmaceutical combinations” (BERLIN-CHEMIE AG, priority 2017, dated 2026).

How the values were obtained:
LY75 on COLO205 cells = biological target: T1, LY75 on COLO205 cells (Homo sapiens, UniProt O60449); test: Competitive FACS binding analysis; settings: blocking antibody from 250 nM, 3 fold serial dilution, conjugate 1 nM (FIG. 5b)
T1 construct: COLO205 cells (ATCC, catalog #CCL-222) were detached from tissue culture flasks; host or cells: COLO205
Experimental: COLO205 cells (ATCC, catalog #CCL-222) were detached from tissue culture flasks with Cell Stripper (Cellgro, catalog #MT-25-056CI). Cells were washed and resuspended in FACS buffer (PBS+2% FBS), neutralized with growth media, and counted. Cells were plated at 50,000 cells per well in a V Bottom 96-well plate. Cells were washed once with FACS buffer (PBS (Fisher, catalog #SH30028-03)+2% FBS). An anti-LY75-mAb (Selected from Example 1) or LY75_A1 was added to wells starting at 250 nM and diluted serially 3 fold and applied to the relevant wells for 45 minutes on ice. Test wells that required single or multiple staining steps were left in FACS buffer as appropriate to ensure the final staining was completed simultaneously for all conditions tested. Two wells were left unstained in FACS buffer as controls.
After the incubation with blocking antibody, cells were washed twice in FACS buffer. The cells were resuspended in FACS buffer containing the anti-LY75-mAb conjugated to MCC-DM1 (1 nM) and incubated on ice for 45 minutes. The cells were washed as above and resuspended in FACS buffer plus 1 ug/ml mouse anti-maytansine antibody and incubated in ice for 45 minutes. […] Mean fluorescence intensity of each sample was determined using a Guava EasyCyte Plus HT Flow Cytometer (96 well plate formats) and the raw data was analyzed using the Guava Cytosoft.

LY75 = biological target: T2, LY75 (Homo sapiens, UniProt O60449); test: Immunohistochemistry using monoclonal antibody to LY75; settings: FFPE Triple Negative breast cancer samples
T2 construct: from tissue; host or cells: FFPE triple negative breast cancer sections
Experimental: FFPE slides were deparaffinised in xylene (2×3 minutes) then rehydrated through 1:1 xylene: 100% ethanol (1×3 minutes), 100% ethanol (2×3 minutes), 95% ethanol (1×3 minutes), 70% ethanol (1×3 minutes), 50% ethanol (1×3 minutes), and tap water (1×3 minutes).
The LY75 antigen was retrieved using microwave heat, high power until boiling then low power for 10 minutes in 50 mL 1× citrate buffer in a Coplin jar. Slides were then left to cool to room temperature for a further 15 min, then washed in tap water, 3 minutes. Circles were drawn around each tissue section/TMA with a hydrophobic barrier pen and slides were then washed 3 times in PBS, 3 minutes each wash.
The primary anti-LY75 antibody was diluted in serum free protein block (SFPB) to obtain a solution with a concentration 20-fold greater than the final desired concentration (20 μg/mL for 1 μg/mL final). The secondary antibody, goat anti-human immunoglobulin G (IgG) antigen-binding fragment (Fab), was prepared similarly in SFPB to create a solution of equal concentration.
Equal volumes of primary and secondary antibodies were combined in a labelled tube, gently mixed, and incubated for 3 minutes at room temperature, resulting in a primary antibody concentration 10-fold greater than the desired final concentration (10 μg/mL for 1 μg/mL final). […]

[1] = system: Contiguous 8mer peptides of LY75 protein; test: Peptide microarray epitope characterization; assay type: binding; settings: 1 μg/mL LY75_A1, scale 1-65535
Experimental: The peptide microarray analysis was performed by LC Sciences, Houston TX, in brief the method comprised the following steps:—Contiguous 8mer peptides of LY75 protein having one amino acid overlap spanning residues 216 to 1666 of the full length LY75 protein were synthesized and immobilized on a microarray chip. The chip comprised three panels such that the experiment was performed in triplicate. The microarray was addressed with LY75_A1 to identify the peptides to which the antibody bound. The binding assay was performed under the following conditions:—
The microarray comprising the contiguous peptides in triplicate was washed with 1 mL of binding buffer at 4° C. for 20 min. It was then incubated with 1 μg/mL LY75_A1 in binding buffer (pH 7.0) at 4° C. for 2 hrs. The array was again washed with 0.5 mL of washing buffer at 4° C. for 30 min then incubated with 25 ng/ml anti-human IgG Alexa 647 conjugate in binding buffer (pH 7.0) at 4° C. for 1 hr. The array was again washed with 0.5 mL of washing buffer at 4° C. for 30 min. The array was then Scanned at 635 nm and PMT 500 and the signal Intensity was recorded. The peptide was classed as detectable if it was present in at least ⅔ legal duplicates. The average signal intensity of the replicates was reported as the final signal intensity. Results

T2 sequence (O60449 28-1722): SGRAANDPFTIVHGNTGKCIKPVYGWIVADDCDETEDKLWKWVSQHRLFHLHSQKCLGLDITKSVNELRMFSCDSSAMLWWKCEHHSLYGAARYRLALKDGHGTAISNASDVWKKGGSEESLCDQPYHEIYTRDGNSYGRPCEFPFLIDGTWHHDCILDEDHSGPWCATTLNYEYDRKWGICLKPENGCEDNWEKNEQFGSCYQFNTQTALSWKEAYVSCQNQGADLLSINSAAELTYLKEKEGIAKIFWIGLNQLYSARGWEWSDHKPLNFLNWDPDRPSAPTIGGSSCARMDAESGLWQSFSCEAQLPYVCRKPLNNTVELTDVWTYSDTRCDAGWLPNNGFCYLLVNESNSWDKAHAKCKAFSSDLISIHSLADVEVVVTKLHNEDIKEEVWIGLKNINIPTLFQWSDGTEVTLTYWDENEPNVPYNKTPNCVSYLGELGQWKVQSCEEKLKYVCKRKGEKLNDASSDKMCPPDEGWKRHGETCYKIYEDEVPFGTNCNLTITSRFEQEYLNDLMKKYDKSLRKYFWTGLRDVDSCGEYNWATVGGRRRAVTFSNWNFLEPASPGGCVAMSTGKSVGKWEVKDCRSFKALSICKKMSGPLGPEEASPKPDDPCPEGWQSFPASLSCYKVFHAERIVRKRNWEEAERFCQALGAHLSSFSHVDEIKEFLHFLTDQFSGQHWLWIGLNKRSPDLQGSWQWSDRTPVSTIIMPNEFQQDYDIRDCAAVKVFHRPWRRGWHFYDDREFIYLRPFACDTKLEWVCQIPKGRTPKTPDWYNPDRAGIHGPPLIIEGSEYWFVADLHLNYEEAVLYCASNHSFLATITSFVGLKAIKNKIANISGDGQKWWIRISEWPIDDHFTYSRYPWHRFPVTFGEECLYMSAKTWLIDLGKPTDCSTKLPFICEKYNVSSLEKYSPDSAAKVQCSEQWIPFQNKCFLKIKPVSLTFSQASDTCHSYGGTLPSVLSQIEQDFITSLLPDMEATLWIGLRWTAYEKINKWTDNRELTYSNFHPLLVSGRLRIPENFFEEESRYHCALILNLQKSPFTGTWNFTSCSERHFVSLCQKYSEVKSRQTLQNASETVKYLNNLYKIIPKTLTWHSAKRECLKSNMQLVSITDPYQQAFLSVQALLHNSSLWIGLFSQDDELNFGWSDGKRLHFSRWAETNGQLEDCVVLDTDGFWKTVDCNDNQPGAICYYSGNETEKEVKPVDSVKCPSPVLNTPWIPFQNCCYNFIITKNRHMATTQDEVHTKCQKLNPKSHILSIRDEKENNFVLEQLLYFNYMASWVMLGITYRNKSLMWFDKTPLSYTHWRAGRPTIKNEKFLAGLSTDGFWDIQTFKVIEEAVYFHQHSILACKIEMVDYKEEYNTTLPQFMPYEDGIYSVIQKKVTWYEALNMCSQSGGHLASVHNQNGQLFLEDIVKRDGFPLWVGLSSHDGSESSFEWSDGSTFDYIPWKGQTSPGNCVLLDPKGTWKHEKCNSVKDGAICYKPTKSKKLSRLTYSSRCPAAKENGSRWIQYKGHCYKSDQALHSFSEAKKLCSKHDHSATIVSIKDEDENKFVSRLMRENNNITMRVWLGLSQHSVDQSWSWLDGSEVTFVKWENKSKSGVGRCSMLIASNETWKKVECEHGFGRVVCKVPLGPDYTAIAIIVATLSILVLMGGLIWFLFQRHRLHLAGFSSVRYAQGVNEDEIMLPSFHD
T1 sequence (O60449 28-1722): as above

B1: LY75_A1: anti-LY75 human monoclonal antibody; VH SEQ ID NO:1, VL SEQ ID NO:2 (antibody, listed as Homo sapiens, V domains shown)
VH: EVQLVESGGGLVKPGGSLRLSCAASGFTYSNAWMSWVRQAPGKGLEWVGRIKSKTDGGTTDYAAPVQGRFTISRDDSKNTLYLQMNSLKTEDTAVYYCTIFGVVSFDYWGQGTLVTVSS
VL: DVQMTQSPSSLSASVGDRVTITCRASQSISDYLSWYQQRPGKAPNLLIYAASNLKTGVPSRFSGSGSGTDFTLTISTLQPEDFATYYCQQSYRSPWTFGQGTKVEIKR
B1 was tested, and the “blocking of binding of anti-LY75-mAb-MCC-DM1” value (LY75 on COLO205 cells) was “unable to block binding of anti-LY75-mAb-MCC-DM1”, the “sections exhibiting robust (+++) staining” value (LY75) was 55% and the “sections showing positive staining” value (LY75) was 77%. For the same molecule, the “average signal for all spots on the array” value [1] was “about 885” and the “maximum signal seen for binding” value ([1]; background cut off 3000) was 25000.
